This passage reports stoichiometry N results from publication PMC8396674.

Where “and” joins values, the source holds several entries; their conditions need not be identical. Identical values can stand only once.

Assay [1] has as its target gC1q domain of human otolin-1, natural variant R342W (human). Put plainly: AUC; sedimentation velocity, 0.1, 0.25 and 0.5 mg/mL protein in 10 mM HEPES pH 7.0, 500 mM NaCl, 5% glycerol with 10 mM CaCl2, 20 °C, 50,000 rpm, c(s) analysis; also 0.25 mg/mL with 1 mM DTT.
Assay [2] shares this target. Put plainly: AUC; sedimentation velocity, 0.1, 0.25 and 0.5 mg/mL protein in 10 mM HEPES pH 7.0, 500 mM NaCl, 5% glycerol with 1 mM EDTA (no Ca2+), 20 °C, 50,000 rpm, c(s) analysis; also 0.25 mg/mL with 1 mM DTT.
In assay [3] the target is gC1q domain of human otolin-1, natural variant R339S (human). Nature of the assay: AUC; sedimentation velocity, 0.1, 0.25 and 0.5 mg/mL protein in 10 mM HEPES pH 7.0, 500 mM NaCl, 5% glycerol with 10 mM CaCl2, 20 °C, 50,000 rpm, c(s) analysis; also 0.25 mg/mL with 1 mM DTT.
The target in assay [4] is gC1q domain of human otolin-1, natural variant Q426R (human). The assay is described as above.
Assay [5] addresses gC1q domain of human otolin-1 (hOtolC1q), wild type (human). Described as above.
For assay [6], the target named is gC1q domain of human otolin-1, natural variant R402P (human). The description is as above.
Assay [7] has the same target. Nature of the assay: AUC; sedimentation velocity, 0.1, 0.25 and 0.5 mg/mL protein in 10 mM HEPES pH 7.0, 500 mM NaCl, 5% glycerol with 1 mM EDTA (no Ca2+), 20 °C, 50,000 rpm, c(s) analysis; also 0.25 mg/mL with 1 mM DTT.

In the case of “gC1q domain of human otolin-1, natural variant R342W (domain or fragment)”, the stoichiometry N (in general, the number of molecules, sites or subunits per partner or assembly) in assay [1] was 3; in assay [2] it was 2 and 4.

For the substance “gC1q domain of human otolin-1, natural variant R339S (domain or fragment)”, the stoichiometry N in assay [3] is 3.

With “gC1q domain of human otolin-1, natural variant Q426R (domain or fragment)”, in assay [4], the stoichiometry N was 3.

For the substance “gC1q domain of human otolin-1 (hOtolC1q), wild type (domain or fragment)”, in assay [5], the stoichiometry N stood at 3.

Consider “gC1q domain of human otolin-1, natural variant R402P (domain or fragment)”, for which the stoichiometry N in assay [6] and in assay [7] was 2 throughout.
